In paper PMC11408249, “Non-invasive in vivo imaging of changes in Collagen III turnover in myocardial fibrosis” (npj Imaging, 2024):
Residues, ends and D or L forms follow the SMILES beside them. No end group written: not given here. *: point of attachment. DOTA = O=C(O)CN1CCN(CC(=O)O)CCN(CC(=O)*)CCN(CC(=O)O)CC1

T1: COL3 (Mus musculus, UniProt P08121)
T1 construct: from tissue; host or cells: infarcted left-ventricular myocardium of female CD1 mice, in vivo
T1 sequence (P08121 155-1219 limits assumed): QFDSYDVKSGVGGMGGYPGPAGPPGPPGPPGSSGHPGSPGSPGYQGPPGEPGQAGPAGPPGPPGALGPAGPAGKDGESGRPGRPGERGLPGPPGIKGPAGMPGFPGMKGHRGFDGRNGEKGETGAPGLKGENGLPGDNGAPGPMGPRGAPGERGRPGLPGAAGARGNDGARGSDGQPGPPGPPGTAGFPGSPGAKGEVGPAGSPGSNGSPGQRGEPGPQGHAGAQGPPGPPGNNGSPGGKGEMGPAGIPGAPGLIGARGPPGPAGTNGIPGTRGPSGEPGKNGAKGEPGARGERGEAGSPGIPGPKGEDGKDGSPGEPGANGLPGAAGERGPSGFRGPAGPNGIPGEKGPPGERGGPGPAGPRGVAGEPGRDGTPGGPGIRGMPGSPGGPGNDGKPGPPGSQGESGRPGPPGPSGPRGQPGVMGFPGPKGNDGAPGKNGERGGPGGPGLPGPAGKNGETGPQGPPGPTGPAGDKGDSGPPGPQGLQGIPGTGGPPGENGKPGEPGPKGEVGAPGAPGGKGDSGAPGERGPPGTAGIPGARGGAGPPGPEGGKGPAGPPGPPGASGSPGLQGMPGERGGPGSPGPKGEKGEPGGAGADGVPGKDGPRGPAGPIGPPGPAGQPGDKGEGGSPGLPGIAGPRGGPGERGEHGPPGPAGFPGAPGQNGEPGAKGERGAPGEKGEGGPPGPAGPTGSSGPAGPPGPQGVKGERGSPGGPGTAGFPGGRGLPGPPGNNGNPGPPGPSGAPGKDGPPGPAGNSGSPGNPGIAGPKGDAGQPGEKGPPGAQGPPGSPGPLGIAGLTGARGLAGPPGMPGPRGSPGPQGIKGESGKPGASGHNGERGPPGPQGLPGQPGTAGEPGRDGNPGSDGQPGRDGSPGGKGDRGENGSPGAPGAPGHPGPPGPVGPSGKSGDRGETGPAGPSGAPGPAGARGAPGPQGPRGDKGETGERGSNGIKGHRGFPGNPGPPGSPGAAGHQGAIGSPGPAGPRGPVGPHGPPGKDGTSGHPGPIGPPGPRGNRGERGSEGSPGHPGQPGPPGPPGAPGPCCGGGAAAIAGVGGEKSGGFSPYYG

T2: Collagen type III (COL3) (Homo sapiens, UniProt P02461)
T2 chain: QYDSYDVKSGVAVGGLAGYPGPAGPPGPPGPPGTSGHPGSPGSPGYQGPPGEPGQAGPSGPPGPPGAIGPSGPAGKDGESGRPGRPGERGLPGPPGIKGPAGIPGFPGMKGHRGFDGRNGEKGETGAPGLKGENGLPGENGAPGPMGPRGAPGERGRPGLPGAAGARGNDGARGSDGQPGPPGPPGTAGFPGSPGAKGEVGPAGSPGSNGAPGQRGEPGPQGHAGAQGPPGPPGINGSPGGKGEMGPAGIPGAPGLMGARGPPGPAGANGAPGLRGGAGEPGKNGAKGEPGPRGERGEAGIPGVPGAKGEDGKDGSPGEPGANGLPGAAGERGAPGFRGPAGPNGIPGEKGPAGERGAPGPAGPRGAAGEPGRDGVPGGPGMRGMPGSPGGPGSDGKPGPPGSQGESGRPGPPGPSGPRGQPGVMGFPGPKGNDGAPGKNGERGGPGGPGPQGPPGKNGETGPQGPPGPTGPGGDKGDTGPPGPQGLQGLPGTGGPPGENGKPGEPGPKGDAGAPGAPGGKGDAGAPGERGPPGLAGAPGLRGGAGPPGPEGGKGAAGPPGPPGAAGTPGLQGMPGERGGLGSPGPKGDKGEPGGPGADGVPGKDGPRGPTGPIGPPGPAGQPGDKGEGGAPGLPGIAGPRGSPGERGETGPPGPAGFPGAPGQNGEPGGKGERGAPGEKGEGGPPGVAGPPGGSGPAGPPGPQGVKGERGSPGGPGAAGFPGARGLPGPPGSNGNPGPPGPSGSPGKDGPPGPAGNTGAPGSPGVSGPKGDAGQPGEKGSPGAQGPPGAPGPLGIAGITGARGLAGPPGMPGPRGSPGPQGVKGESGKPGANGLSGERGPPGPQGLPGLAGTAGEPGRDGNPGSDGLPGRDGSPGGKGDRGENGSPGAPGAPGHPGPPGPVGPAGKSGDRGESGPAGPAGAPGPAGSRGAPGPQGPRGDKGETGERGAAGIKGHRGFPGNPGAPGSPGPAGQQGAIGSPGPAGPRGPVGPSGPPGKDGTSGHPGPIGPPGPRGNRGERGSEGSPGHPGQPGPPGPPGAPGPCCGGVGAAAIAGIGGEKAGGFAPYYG


Experiments:
[1] = parameters: species or system mice; details: mouse, in vivo, iv
Experimental: Gallium-68 (^68Ga) was eluted from the generators onsite at the time of the experiments. Radiolabelling of the respective DOTAMA-CBP compound was performed as follows: DOTAMA-CBPs were dissolved in water (Baxter water for irrigation) to a final concentration 4 mg/mL. In an Eppendorf, 25 µL of the DOTAMA-CBP solution was added. Sodium acetate (30%NaOAc, 20 µL, pH 5) buffer was added to this solution followed by the addition of 200 µL ^68Ga (~100 MBq). The solution was then heated to 50 °C for 30 min. After the reaction was removed from heat, the pH was adjusted to pH 7 by adding sodium bicarbonate (1 M, 10 µL). Labelling efficiency was followed by radio thin-layer chromatography (TLC) and HPLC. Radio TLCs were performed using silica gel IBF-2 Baker plates, 10% NH4OAc 50:50 in MeOH with 5 µL of the sample added. For the HPLC, a C18 column was used (MeCN + 0.1% TFA and H2O + 0.1% TFA, gradient) with 10 µL of the sample measured.
In vivo biodistribution imaging was carried out using a positron emission tomography/computed tomography (PET/CT) scanner (NanoPET/CT scanner; Mediso, Hungary. Male apolipoprotein E knockout (ApoE^−/−) were anesthetised with 4% isoflurane mixed with 1% medical oxygen and maintained at 2% isoflurane for the PET/CT experiment. Mice were injected intravenously (i.v.) with either ^68Ga-DOTAMA-CBP1 or ^68Ga-DOTAMA-CBP2 (12MBq/mouse for both probes). To verify anatomical structures, CT images were obtained after the PET imaging with a 55 kVp voltage. PET images were acquired continuously up to 90 min post-injection with a 256 × 256 matrix size and a resolution of 1 mm/pixel. PET and CT images were reconstructed using the manufacturer software with a voxel size of 0.4 mm and analysed with a VivoQuant 2.5 software (Invicro, Boston, MA, USA). The data acquired with the CBP1 and CBP2 imaging probes were reconstructed in 15-minute bins up to 90 min. The PET/CT images were merged using the software’s automated fusion function. Additionally, the software was used for region-of-Interest (ROI) analysis and results were reported as %ID/g for each organ. Following the in vivo PET/CT imaging, the animals were euthanised and tissues extracted for ex vivo gamma counting (1282 CompuGamma gamma counting, LKB Wallac, Finland).

[2] = molecular target: T1, COL3; test: In vivo MRI of the aortic wall in a murine model of vascular remodelling; details: ApoE−/− mice after aortic injury and 12 weeks high-fat diet, i.v. 0.2 mmol/kg, LGE MRI at 3 T up to 2 h post-injection
Description: Male ApoE^−/− mice were bred in-house and underwent surgery at 8–10 weeks of age (n = 6). Mice were anesthetised with 4% isoflurane mixed with 1% medical oxygen and anaesthesia was maintained at 2% during the surgery as previously reported. Briefly, mice underwent a laparotomy to expose the abdominal aorta, renal and iliac arteries. Two ligatures were inserted around the aorta (surgical silk, size 4–0, Aragó, Zaragoza, Spain), the first below the renal arteries and the second above the iliac bifurcation. A 30 G needle was introduced into the abdominal aorta at the level of the iliac bifurcation, via an aortic puncture. 1 mL of saline was infused into the aorta in three boluses. Finally, the needle was removed, and the puncture was repaired. The muscle and skin incisions were sutured (5-0 Vicryl, Ethicon Inc, Somerville, NJ), and the animals were allowed to recover. Mice were switched to a high-fat diet (HFD) containing 21% fat from lard and 0.15% (wt/wt) cholesterol (Special Diets Services, Witham, United Kingdom), on day 2 post-surgery for 12 weeks prior to the imaging experiments.
Anaesthesia was induced with 4% and maintained with 1–2% isoflurane during the MRI experiments. Mice (n = 3 per group) were placed supine on a single-loop surface coil (diameter = 47 mm) and the abdominal aorta was imaged up to 2 h post-injection of the monomeric (i.v. 0.2 mmol/kg, 0.2 mmol/kg Gd), the next day with the corresponding tetrameric collagen-binding probe (i.v 0.2 mmol/kg, 0.8 mmol/kg Gd) and the 3rd day using the scrambled probes (n = 2–3 per probe; i.v. 0.2 mmol/kg). This timeline ensures complete washout of one probe from the tissue before the administration of another probe. […]

[3] = tested on: COL3 remodelling; test: Enalapril treatment after myocardial infarction, read out by COL3 molecular CMR and cine MRI; assay type: in vivo, mice
[4] = molecular target: T2, Collagen type III (COL3); test: Eu(III) time-resolved fluorescence plate assay

| Molecule | route of elimination (in words) [1] | time within which most of the probe is eliminated from the blood (first phase clearance) [1] | unspecific uptake in tissues (in words) [1] | Kd [4] | also measured |
| --- | --- | --- | --- | --- | --- |
| CC(C)[C@H](NC(=O)[C@H](CCC(=O)O)NC(=O)[C@H](CO)NC(=O)[C@H](CCCCN)NC(=O)[C@H](CCCNC(=N)N)NC(=O)[C@H](C)NC(=O)[C@H](CC(=O)O)NC(=O)CN1CCN(CC(=O)O)CCN(CC(=O)O)CCN(CC(=O)O)CC1)C(=O)N[C@@H](CCC(N)=O)C(=O)N[C@@H](CCCCN)C(=O)O [^68Ga-DOTAMA-CBP1, metal not drawn] ({DOTA}-DARKSEVQK-OH) | renal excretion | 15 to 30 min | no significant unspecific uptake in tissues |  |  |
| CSCC[C@H](NC(=O)[C@H](CCCNC(=N)N)NC(=O)[C@H](CC(C)C)NC(=O)[C@@H]1CCCN1C(=O)[C@H](Cc1ccccc1)NC(=O)[C@H](CCC(=O)O)NC(=O)[C@@H](NC(=O)CN1CCN(CC(=O)O)CCN(CC(=O)O)CCN(CC(=O)O)CC1)[C@@H](C)O)C(=O)N[C@@H](CCCNC(=N)N)C(=O)N[C@@H](CC(=O)O)C(=O)N[C@@H](Cc1c[nH]c2ccccc12)C(=O)N[C@@H](CC(C)C)C(=O)N[C@@H](CCCCN)C(=O)N[C@@H](CC(N)=O)C(=O)O [^68Ga-DOTAMA-CBP2, metal not drawn] ({DOTA}-TEFPLRMRDWLKN-OH) | renal excretion | 15 to 30 min | no significant unspecific uptake in tissues |  |  |
| Ac-C-EWFMKDRLLNRPT [[Gd-DOTAMA]4-SccCBP2, scrambled tetrameric Gd probe (Ac-C-…), negative control] |  |  |  |  | signal enhancement of the remodelled aortic wall (in words) [2]: also showed signal enhancement |
| CCOC(=O)[C@H](CCc1ccccc1)N[C@@H](C)C(=O)N1CCC[C@H]1C(=O)O [enalapril] |  |  |  |  | volume of signal enhancement (LGE volume) at day 21 versus untreated mice (in words) ([3]; enalapril 20 mg/kg/day in drinking water after MI, imaged with [Gd-DOTAMA]4-CBP1, n = 7 per group): significantly higher volume of signal enhancement; cardiac geometry and function versus untreated mice (in words) ([3]; enalapril 20 mg/kg/day in drinking water, cine MRI, days 10 and 21 post-MI): no significant differences |
| TEFPLRMRDWLKN (not fully specified (N-terminus); also: Eu complexed by N-terminal DOTAMA) [Eu-DOTAMA-CBP2] |  |  |  | 4.8 µM |  |
| DARKSEVQK (not fully specified (N-terminus); also: Eu complexed by N-terminal DOTAMA) [Eu-DOTAMA-CBP1] |  |  |  | 5.3 µM |  |
